Data published in US20250115663A1 (CELLDEX THERAPEUTICS, published 2025).
Residue numbers refer to the chain shown, from its start.

T1: kappa-sCD40(1-94)-Flag point mutant E33A (human, UniProt P25942 21-114)
T1 construct: not shown: N-terminal human kappa light chain; C-terminal Flag tag
T1 chain: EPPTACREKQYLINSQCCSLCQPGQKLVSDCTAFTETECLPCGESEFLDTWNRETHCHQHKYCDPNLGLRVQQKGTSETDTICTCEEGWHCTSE

T2: kappa-sCD40(1-94)-Flag point mutant T35E (human, UniProt P25942 21-114)
T2 construct: not shown: N-terminal human kappa light chain; C-terminal Flag tag
T2 chain: T1 chain with A33E, T35E

T3: kappa-sCD40(1-94)-Flag point mutant F34L (human, UniProt P25942 21-114)
T3 construct: not shown: N-terminal human kappa light chain; C-terminal Flag tag
T3 chain: T1 chain with A33E, F34L

T4: kappa-sCD40(1-94)-Flag point mutant P3S (human, UniProt P25942 21-114)
T4 construct: not shown: N-terminal human kappa light chain; C-terminal Flag tag
T4 chain: T1 chain with P3S, A33E

T5: kappa-sCD40(1-94)-Flag point mutant E36K (human, UniProt P25942 21-114)
T5 construct: not shown: N-terminal human kappa light chain; C-terminal Flag tag
T5 chain: T1 chain with A33E, E36K

T6: kappa-sCD40(1-94)-Flag point mutant P2Q (human, UniProt P25942 21-114)
T6 construct: not shown: N-terminal human kappa light chain; C-terminal Flag tag
T6 chain: T1 chain with P2Q, A33E

T7: kappa-sCD40(1-94)-Flag point mutant T4V (human, UniProt P25942 21-114)
T7 construct: not shown: N-terminal human kappa light chain; C-terminal Flag tag
T7 chain: T1 chain with T4V, A33E

B1: anti-CD40 human monoclonal antibody 3G5 (antibody, human IgG2, V domains shown)
VH: QVQLVESGGGVVQPGKSLRLSCAASGFTFSSNGIHWVRQAPGKGLEWVAVIWSDGSNKFYADSVKGRFTISRDNSKNTLYLQMNSLRAEDTAVYYCARASGSGSYYNFFDYWGQGTLVTVSS
VL: EIVMTQSPATLSVSPGERATLSCRASQSVRSNLAWYQQKPGQAPRLLIYGASTRATGIPARFSGSGSGTEFTLTINSLQSEDFAVYYCQQHNKWITFGQGTRLEIK
notes: Human IgG2
B2: anti-CD40 human monoclonal antibody 3C3 (antibody, human IgG2, kappa, V domains shown)
VH: QVQLVESGGGVVQPGRSLRLSCAGSGFIFSRYGMYWVRQAPGKGLEWVAVIWYDGSYKYYADSVKGRFTISRDNSKNTLYLQMNSLRAEDTAVYYCARESPWYYFDYWGQGTLVTVSS
VL: DIQMTQSPSSLSASVGDRVTITCRASQGISNYLAWYQQKPGKVPKLLIYAASTLQSGVPSRFSGSGSGTDFTLTISSLQPEDVATYYCQKYKSAPFTFGPGTKVDIKR
notes: Human IgG2, C-terminal lysine removed; also called anti-CD40 mAb 3C3; CD40 antibody 3C3

Experiments:
[1] = biological target: T8, soluble human CD40-MsIgG2a (human, UniProt P25942); test: BLI (Octet QKe), antibody captured on anti-human Fc (AHC) biosensors, analyte soluble human CD40-MsIgG2a 3.13 to 0.098 nM, 25 C, 1:1 fit
T8 construct: soluble, fused to mouse IgG2a; also called recombinant human CD40-msG2a chimeric protein; CD40-MsIgG2a (Celldex, 60 kD by SDS-PAGE)
Protocol: Purified antibodies from Example 1 were captured on Anti-Human Fc Capture (AHC) biosensors (Fortebio Product No. 18-5060). Each antibody was prepared in dilution buffer (10mMPO4+150 mM NaCl+1 mg/mL BSA+0.5% Tween 20, pH 7.2) to 0.5 μg/mL and loaded on freshly hydrated AHC biosensors for 35-50 sec at 25° C. and 1000 rpm plate shake speed to achieve a target response of 0.2 nm. Low levels of ligand were captured to limit any effects of mass transport of analyte on kinetic parameters. For one assay, eight biosensors were loaded with the same antibody.
Binding was determined by exposing six of the antibody loaded biosensors to analyte: soluble human CD40-MsIgG2a (Celldex, 60 kD by SDS-PAGE). Affinity measurements were determined using 2-fold serial dilutions of analyte ranging from 3.13 to 0.098 nM in dilution buffer at 25° C. and 1000 rpm plate shake speed. Association of the antibody loaded biosensors in analyte wells was carried out for 1200 seconds, the biosensors were then moved to dilution buffer wells for 2.5 hrs (9000 sec) for dissociation measurements.
Fortebio's Data Analysis Software version 8.2.0.7 (Pall ForteBio, Menlo Park, CA) was used in each case to derive kinetic parameters from the concentration series of analyte in dilution buffer binding to captured antibody. The association and dissociation curves were fitted to a 1:1 binding model using the data analysis software according to the manufacturer's guidelines.

[2] = biological target: T1, kappa-sCD40(1-94)-Flag point mutant E33A; test: ELISA, mutated kappa-sCD40(1-94)-Flag captured on anti-Flag antibody, detection anti-human IgG Fc-HRP; the concentration axis is taken as that of 3C3
Protocol: (§1) 1 μg/ml of purified kappa-sCD40-Flag fusion proteins or CHO cell supernatants containing the sCD40 fusion proteins were captured to microtiter plates that were pre-coated with 5 μg/ml mouse anti-Flag antibody (Sigma) in PBS and blocked with 5% bovine serum albumin in PBS. Following incubation with the CD40 antibody, the microplates were washed with PBS/Tween, and incubated with a goat anti-human IgG Fc polyclonal reagent conjugated to horseradish peroxidase. After washing, the plates were developed with HRP substrate, and analyzed at OD 450-650 using a microtiter plate reader. An ELISA with a goat anti-human IgG Fab2-HRP to measure kappa chain binding was carried out in parallel to validate the sCD40 fusion protein expression from different transfections.

[3] = biological target: T2, kappa-sCD40(1-94)-Flag point mutant T35E; test: as above
Protocol: as §1

[4] = biological target: T3, kappa-sCD40(1-94)-Flag point mutant F34L; test: as above
Protocol: as §1

[5] = biological target: T4, kappa-sCD40(1-94)-Flag point mutant P3S; test: as above
Protocol: as §1

[6] = biological target: T5, kappa-sCD40(1-94)-Flag point mutant E36K; test: as above
Protocol: as §1

[7] = biological target: T9, kappa-sCD40(1-94)-Flag point mutant E1G (human, UniProt P25942 22-114); test: as above
T9 construct: not shown: N-terminal human kappa light chain; C-terminal Flag tag
Protocol: as §1

[8] = biological target: T6, kappa-sCD40(1-94)-Flag point mutant P2Q; test: as above
Protocol: as §1

[9] = biological target: T7, kappa-sCD40(1-94)-Flag point mutant T4V; test: as above
Protocol: as §1

Kd [1] [pM] | EC50 (read off the curve) [2] [µg/mL] | EC50 (read off the curve) [3] [µg/mL] | EC50 (read off the curve) [4] [µg/mL] | EC50 (read off the curve) [5] [µg/mL] | EC50 (read off the curve) [6] [µg/mL] | EC50 (read off the curve) [7] [µg/mL] | EC50 (read off the curve) [8] [µg/mL] | EC50 (read off the curve) [9] [µg/mL] | kon [1] [M⁻¹ s⁻¹] | Binder
3.3 | – | – | – | – | – | – | – | – | – | B1
10.7 | ~0.2 | ~0.02 | ~0.06 | ~0.03 | ~0.09 | ~0.04 | ~0.02 | ~0.02 | 813000 | B2
